Assay results taken from paper PMC11737055.

Target: TDP-43 (UniProt Q921F2)
Test: anti-GFP co-IP, anti-RFP Western blot
Conditions: reference: GFP-FMRP wild type; sites S499

Substance: FMRP (from UniProt P35922) GFP-FMRP S499A
- binding against the reference: weaker
